# Data taken from US11795460B2, “Compositions and methods for TTR gene editing and treating ATTR amyloidosis” (Intellia Therapeutics, Inc., priority 2017, dated 2023).
# Strand notation (5' to 3'): a small letter for the sugar, then the base; units joined by * are phosphorothioate-linked, units joined directly phosphodiester-linked; [ ] holds rarer units or linkages, { } end groups; capitals alone tell only the bases. m = 2'-O-methyl; r = 2'-OH (RNA)
# B1: G000570: TTR sgRNA modified sequence, Human, SEQ ID No. 111; guide sequence of CR003347 (nucleic acid)
# guide: mC*mA*mU*rUrGrArUrGrGrCrArGrGrArCrUrGrCrCrUrGrUrUrUrUrArGrAmGmCmUmAmGmAmAmAmUmAmGmCrArArGrUrUrArArArArUrArArGrGrCrUrArGrUrCrCrGrUrUrArUrCrAmAmCmUmUmGmAmAmAmAmAmGmUmGmGmCmAmCmCmGmAmGmUmCmGmGmUmGmCmU*mU*mU*mU
# B2: G000572: TTR sgRNA modified sequence, Human, SEQ ID No. 113; guide sequence of CR003385 (nucleic acid)
# guide: mC*mC*mC*rCrUrArCrUrCrCrUrArUrUrCrCrArCrCrArGrUrUrUrUrArGrAmGmCmUmAmGmAmAmAmUmAmGmCrArArGrUrUrArArArArUrArArGrGrCrUrArGrUrCrCrGrUrUrArUrCrAmAmCmUmUmGmAmAmAmAmAmGmUmGmGmCmAmCmCmGmAmGmUmCmGmGmUmGmCmU*mU*mU*mU
# B3: G000501: TTR sgRNA modified sequence, Human, SEQ ID No. 108; guide sequence of CR005300 (nucleic acid)
# guide: mU*mC*mA*rCrArGrArArArCrArCrUrCrArCrCrGrUrArGrUrUrUrUrArGrAmGmCmUmAmGmAmAmAmUmAmGmCrArArGrUrUrArArArArUrArArGrGrCrUrArGrUrCrCrGrUrUrArUrCrAmAmCmUmUmGmAmAmAmAmAmGmUmGmGmCmAmCmCmGmAmGmUmCmGmGmUmGmCmU*mU*mU*mU
# B4: G000497: TTR sgRNA modified sequence, Human, SEQ ID No. 104; guide sequence of CR003335 (nucleic acid)
# guide: mC*mU*mG*rCrUrCrCrUrCrCrUrCrUrGrCrCrUrUrGrCrGrUrUrUrUrArGrAmGmCmUmAmGmAmAmAmUmAmGmCrArArGrUrUrArArArArUrArArGrGrCrUrArGrUrCrCrGrUrUrArUrCrAmAmCmUmUmGmAmAmAmAmAmGmUmGmGmCmAmCmCmGmAmGmUmCmGmGmUmGmCmU*mU*mU*mU
# B5: G000567: TTR sgRNA modified sequence, Human, SEQ ID No. 109; guide sequence of CR003352 (nucleic acid)
# guide: mG*mA*mA*rArGrGrCrUrGrCrUrGrArUrGrArCrArCrCrGrUrUrUrUrArGrAmGmCmUmAmGmAmAmAmUmAmGmCrArArGrUrUrArArArArUrArArGrGrCrUrArGrUrCrCrGrUrUrArUrCrAmAmCmUmUmGmAmAmAmAmAmGmUmGmGmCmAmCmCmGmAmGmUmCmGmGmUmGmCmU*mU*mU*mU
# B6: G000568: TTR sgRNA modified sequence, Human, SEQ ID No. 110; guide sequence of CR003391 (nucleic acid)
# guide: mG*mG*mC*rUrGrUrCrGrUrCrArCrCrArArUrCrCrCrArGrUrUrUrUrArGrAmGmCmUmAmGmAmAmAmUmAmGmCrArArGrUrUrArArArArUrArArGrGrCrUrArGrUrCrCrGrUrUrArUrCrAmAmCmUmUmGmAmAmAmAmAmGmUmGmGmCmAmCmCmGmAmGmUmCmGmGmUmGmCmU*mU*mU*mU
# B7: G000498: TTR sgRNA modified sequence, Human, SEQ ID No. 105; guide sequence of CR003359 (nucleic acid)
# guide: mA*mG*mU*rGrArGrUrCrUrGrGrArGrArGrCrUrGrCrArGrUrUrUrUrArGrAmGmCmUmAmGmAmAmAmUmAmGmCrArArGrUrUrArArArArUrArArGrGrCrUrArGrUrCrCrGrUrUrArUrCrAmAmCmUmUmGmAmAmAmAmAmGmUmGmGmCmAmCmCmGmAmGmUmCmGmGmUmGmCmU*mU*mU*mU
# B8: G000500: TTR sgRNA modified sequence, Human, SEQ ID No. 107; guide sequence of CR003337 (nucleic acid)
# guide: mC*mC*mA*rGrUrCrCrArGrCrArArGrGrCrArGrArGrGrGrUrUrUrUrArGrAmGmCmUmAmGmAmAmAmUmAmGmCrArArGrUrUrArArArArUrArArGrGrCrUrArGrUrCrCrGrUrUrArUrCrAmAmCmUmUmGmAmAmAmAmAmGmUmGmGmCmAmCmCmGmAmGmUmCmGmGmUmGmCmU*mU*mU*mU
# How the values were obtained:
# TTR [1] = experiment: TTR editing in primary human hepatocytes treated with LNP formulated Spy Cas9 mRNA (SEQ ID NO: 2) and sgRNAs (Table 16); assay type: cell-based; conditions: LNP formulated Spy Cas9 mRNA (SEQ ID NO: 2) and sgRNA, 72 hours
# Method: (§1) Primary liver hepatocytes. Primary human liver hepatocytes (PHH) and primary cynomolgus liver hepatocytes (PCH) (Gibco) were cultured per the manufacturer's protocol (Invitrogen, protocol 11.28.2012). In brief, the cells were thawed and resuspended in hepatocyte thawing medium with supplements (Gibco, Cat. CM7000) followed by centrifugation at 100 g for 10 minutes for human and 80 g for 4 minutes for cyno. The supernatant was discarded and the pelleted cells resuspended in hepatocyte plating medium plus supplement pack (Invitrogen, Cat. A1217601 and CM3000). Cells were counted and plated on Bio-coat collagen I coated 96-well plates (ThermoFisher, Cat. 877272) at a density of 33,000 cells/well for human or 60,000 cells/well for cyno (or 65,000 cells/well when assaying effects on TTR protein, described further below). Plated cells were allowed to settle and adhere for 6 or 24 hours in a tissue culture incubator at 37° C. and 5% CO2 atmosphere. After incubation cells were checked for monolayer formation and media was replaced with hepatocyte culture medium with serum-free supplement pack (Invitrogen, Cat. A1217601 and CM4000).
# In general, the lipid nanoparticle components were dissolved in 100% ethanol with the lipid component of various molar ratios. The RNA cargos were dissolved in 25 mM citrate, 100 mM NaCl, pH 5.0, resulting in a concentration of RNA cargo of approximately 0.45 mg/mL. The LNPs were formulated with a lipid amine to RNA phosphate (N:P) molar ratio of about 4.5 or about 6, with the ratio of mRNA to gRNA at 1:1 by weight.
# The LNPs were formed by microfluidic mixing of the lipid and RNA solutions using a Precision Nanosystems NanoAssemblr™ Benchtop Instrument, according to the manufacturer's protocol. A 2:1 ratio of aqueous to organic solvent was maintained during mixing using differential flow rates. After mixing, the LNPs were collected, diluted in water (approximately 1:1 v/v), held for 1 hour at room temperature, and further diluted with water (approximately 1:1 v/v) before final buffer exchange. The final buffer exchange into 50 mM Tris, 45 mM NaCl, 5% (w/v) sucrose, pH 7.5 (TSS) was completed with PD-10 desalting columns (GE). If required, formulations were concentrated by centrifugation with Amicon 100 kDa centrifugal filters (Millipore). The resulting mixture was then filtered using a 0.2 μm sterile filter. The final LNP was stored at −80° C. until further use.
# (§2) To quantitatively determine the efficiency of editing at the target location in the genome, sequencing was utilized to identify the presence of insertions and deletions introduced by gene editing.
# (§3) Primers were designed around the target site within the gene of interest (e.g. TTR), and the genomic area of interest was amplified.
# (§4) Additional PCR was performed per the manufacturer's protocols (Illumina) to add chemistry for sequencing. The amplicons were sequenced on an Illumina MiSeq instrument. The reads were aligned to a reference genome (e.g., the human reference genome (hg38), the cynomologus reference genome (mf5), the rat reference genome (rn6), or the mouse reference genome (mm10)) after eliminating those having low quality scores. The resulting files containing the reads were mapped to the reference genome (BAM files), where reads that overlapped the target region of interest were selected and the number of wild type reads versus the number of reads which contain an insertion, substitution, or deletion was calculated.
# (§5) The editing percentage (e.g., the “editing efficiency” or “percent editing” or “indel frequency”) is defined as the total number of sequence reads with insertions/deletions (“indels”) or substitutions over the total number of sequence reads, including wild type.
# Lipid nanoparticle formulations of modified sgRNAs targeting human TTR and the cyno matched sgRNA sequences were tested on primary human hepatocytes and primary cyno hepatocytes in a dose response curve. Primary human and cyno hepatocytes were plated as described in Example 1. […]
# TTR [2] = experiment: TTR editing in primary cyno hepatocytes treated with LNP formulated Spy Cas9 mRNA (SEQ ID NO: 2) and sgRNAs (Tables 17, 18); assay type: cell-based, cynomolgus monkey; conditions: Table 17, LNP formulated Spy Cas9 mRNA (SEQ ID NO: 2) and sgRNA, 12.5 ng mRNA, 3.9 nM sgRNA, 72 hours
# Outline: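 Primary cynomolgus hepatocytes, 24 h after plating, dosed with LNPs (N:P about 4.5 or 6, mRNA:gRNA 1:1 by weight) pre-incubated 5 min at 37° C. in medium with 6% cyno serum, in an 8-point 2-fold dose response. Editing = indel/substitution reads over total reads by amplicon MiSeq sequencing.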
# TTR [3] = experiment: TTR editing in primary human hepatocytes transfected with Spy Cas9 mRNA and sgRNAs (Table 13); assay type: cell-based; conditions: primary human hepatocytes co-transfected with Spy Cas9 mRNA (SEQ ID NO:2) and sgRNAs, 12.5 nM
# Method: as §1
# Lipofectamine RNAiMax (ThermoFisher, Cat. 13778150) based transfections were conducted as per the manufacturer's protocol. Cells were sequentially transfected with a lipoplex containing Spy Cas9 mRNA (100 ng), Lipofectamine RNAiMax (0.4 […]) and tracer RNA ([…]), Lipofectamine RNAiMax (0.4 μL/well) and OptiMem.
# Transfected cells were harvested post-transfection at 24, 48, or 72 hours. The genomic DNA was extracted from each well of a 96-well plate using 50 μL/well BuccalAmp DNA Extraction solution (Epicentre, Cat. QE09050) per manufacturer's protocol. All DNA samples were subjected to PCR and subsequent NGS analyses, as described herein.
# as §2, §3, §4, §5
# Guides in modified sgRNA format targeting human and/or cyno TTR were delivered to primary human hepatocytes and primary cyno hepatocytes as described in Example 1. Percent editing was determined for crRNAs comprising each guide sequence across each cell type and the guide sequences were then rank ordered based on highest % edit. The screening data for the guide sequences in Table 2 in both cell lines are listed below (Table 12 through 15).
Molecule,"12.5 ng mRNA, 3.9 nM sgRNA Avg % Edit (TTR [1]) [%]","12.5 ng mRNA, 3.9 nM sgRNA Avg % Edit (TTR [2]) [%]",Avg % Deletion (TTR [3]) [%],Avg % Edit (TTR [3]) [%],Avg % Insert (TTR [3]) [%]
B1,88.30,17.30,0.35,68.42,68.08
B2,55.45,30.60,13.85,55.42,41.62
B3,32.30,1.37,6.62,40.32,33.82
B4,15.10,0.23,5.85,40.33,34.48
B5,48.95,0.10,10.02,27.28,17.35
B6,54.60,9.25,0.80,43.75,43.00
B7,24.43,37.90,14.90,60.02,45.20
B8,23.57,10.47,3.10,35.50,32.47
